Starred links: 1 amine or outer side, 2 acyl side, 3 side chain; linkers in the order of their positions; H or OH if unused. Positions of bridges follow the written chain, without caps; N, C: chain ends. Non-standard residues stand in square brackets, D forms with d. Primed or numbered codes have the meaning given here. *: point of attachment. PyrS2″ = (S)-3-amino-1-((pent-4-en-1-yloxy)carbonyl)pyrrolidine-3-carboxylic acid (stapling residue), C=CCCCOC(=O)N1CC[C@@](N[*:1])(C(=O)[*:2])C1; B5(4) = 2,2-bis(4-pentenyl)glycine = 2-amino-2-(pent-4-en-1-yl)hept-6-enoic acid (stitching residue), C=CCCCC(CCCC=C)(N[*:1])C(=O)[*:2]; B5(5) = 2,2-bis(4-pentenyl)glycine, 2-amino-2-(pent-4-en-1-yl)hept-6-enoic acid (stitching residue), C=CCCCC(CCCC=C)(N[*:1])C(=O)[*:2]; PyrS2 = (S)-3-amino-1-((pent-4-en-1-yloxy)carbonyl)pyrrolidine-3-carboxylic acid, C=CCCCOC(=O)N1CC[C@@](N[*:1])(C(=O)[*:2])C1; PyrS1 = (S)-3-amino-1-((but-3-en-1-yloxy)carbonyl)pyrrolidine-3-carboxylic acid, C=CCCOC(=O)N1CC[C@@](N[*:1])(C(=O)[*:2])C1; B5(25) = 2-amino-2-(pent-4-en-1-yl)hept-6-enoic acid (stitching residue), C=CCCCC(CCCC=C)(N[*:1])C(=O)[*:2]; MorphAsn = (S)-2-amino-4-morpholino-4-oxobutanoic acid, O=C(C[C@H](N[*:1])C(=O)[*:2])N1CCOCC1; B5(3) = 2,2-bis(4-pentenyl)glycine (stitching residue), C=CCCCC(CCCC=C)(N[*:1])C(=O)[*:2]; B6 = 2-amino-2-(hex-5-en-1-yl)oct-7-enoic acid, C=CCCCCC(CCCCC=C)(N[*:1])C(=O)[*:2]; R6 = (R)-2-amino-2-methyloct-7-enoic acid, C=CCCCC[C@@](C)(N[*:1])C(=O)[*:2]; R4 = (R)-2-amino-2-methylhex-5-enoic acid, C=CCC[C@@](C)(N[*:1])C(=O)[*:2]; Phe(3-CF3) = N[C@@H](Cc1cccc(C(F)(F)F)c1)C(=O)O; Phe(3-COOH) = N[C@@H](Cc1cccc(C(=O)O)c1)C(=O)O; Phe(2-CF3) = N[C@@H](Cc1ccccc1C(F)(F)F)C(=O)O; Phe(2-Cl) = N[C@@H](Cc1ccccc1Cl)C(=O)O; dαMeGly(allyl) = C=CC[C@@](C)(N)C(=O)O; Bta = N[C@@H](Cc1csc2ccccc12)C(=O)O; αAllylPro = C=CC[C@@]1(C(=O)O)CCCN1; Morpholinoacetyl = O=C(CN1CCOCC1)*; tBuAla = CC(C)(C)C[C@H](N)C(=O)O; 3Thi = N[C@@H](Cc1ccsc1)C(=O)O; Cha = N[C@@H](CC1CCCCC1)C(=O)O; Leu(ol) = CC(C)C[C@H](N)CO; Me2Npr = not defined here; Alaol = C[C@@H](CO)N*; Ms = CS(=O)(=O)*
Key:
[1] = target: full-length beta-Catenin (Uniprot ID P35222) (Homo sapiens (Human)) (UniProt P35222); test: fluorescence polarization competition; peptide titrated against 10 nM full-length beta-catenin + 10 nM 5FAM-TCF4(10-53)
[2] = target: full-length beta-Catenin (Uniprot ID P35222) (Homo sapiens (Human)) (UniProt P35222); test: fluorescence polarization competition; full-length beta-catenin, competitor 5FAM-TCF4(10-53) probe
Target sequence in this assay (P35222 whole entry): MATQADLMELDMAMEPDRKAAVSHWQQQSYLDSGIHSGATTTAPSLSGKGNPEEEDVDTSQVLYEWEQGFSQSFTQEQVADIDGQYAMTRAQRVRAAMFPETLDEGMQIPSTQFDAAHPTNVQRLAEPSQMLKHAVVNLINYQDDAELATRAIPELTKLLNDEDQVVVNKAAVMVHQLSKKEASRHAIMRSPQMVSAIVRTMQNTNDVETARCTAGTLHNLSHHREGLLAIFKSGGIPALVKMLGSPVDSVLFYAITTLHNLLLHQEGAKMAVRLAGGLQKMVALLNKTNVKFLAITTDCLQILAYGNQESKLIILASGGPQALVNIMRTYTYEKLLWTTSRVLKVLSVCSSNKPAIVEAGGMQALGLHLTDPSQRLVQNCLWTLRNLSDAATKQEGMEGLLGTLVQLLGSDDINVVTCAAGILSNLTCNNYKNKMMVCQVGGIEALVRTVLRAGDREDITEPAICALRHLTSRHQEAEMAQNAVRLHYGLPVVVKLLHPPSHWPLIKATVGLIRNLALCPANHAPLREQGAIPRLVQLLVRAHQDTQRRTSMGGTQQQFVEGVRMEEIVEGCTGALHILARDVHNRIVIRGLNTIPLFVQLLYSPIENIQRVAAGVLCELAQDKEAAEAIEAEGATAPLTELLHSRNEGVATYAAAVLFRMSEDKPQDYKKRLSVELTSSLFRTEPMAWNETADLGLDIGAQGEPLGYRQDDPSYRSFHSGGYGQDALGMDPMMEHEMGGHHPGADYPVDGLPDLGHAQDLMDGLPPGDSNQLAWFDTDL

[3] = target: full-length beta-Catenin (Uniprot ID P35222) (Homo sapiens (Human)) (UniProt P35222); test: fluorescence polarization competition; 10 nM full-length beta-catenin + 10 nM 5FAM-TCF4(10-53) probe
Target sequence in this assay (P35222 whole entry): as above

B1: I-1073 (peptide)
peptide: Ac-[αAllylPro]D[tBuAla][B5(3)]DEAAFL[PyrS2″]F[Bta]Q-NH2
modifications: staple 1-4, 4-11; not fully specified; printed as Ac-PL3-Asp-Npg-B5-Asp-Glu-Ala-Ala-Phe-Leu-PyrS2-Phe-BztA-Gln-NH2
**Q.** What does the source list for B1?
**A.** IC50 [1]: 409 nM; EC50 [2]: 409 nM

**Q.** Ac-PD[tBuAla][dαMeGly(allyl)]DDAAFL[PyrS2][3Thi][Bta]Q-NH2 (staple 4-11) [I-1990] was tested. Which IC50 [3] did it give?
**A.** 585 nM

B2: I-2520 (peptide)
peptide: Ac-[αAllylPro]D[tBuAla][B5(4)]DXQAFL[PyrS2][Phe(2-CF3)][Bta]A-NH2
modifications: staple 1-4, 4-11; not fully specified (residue 6); printed as Ac-PL3-Asp-Npg-B5-Asp-[CH2CChCO2H]TriAzDap-Gln-Ala-Phe-Leu-PyrS2-2F3MeF-BztA-Ala-NH2
**Q.** For B2, which IC50 [1] is on record?
**A.** 27 nM

**Q.** For Ac-[αAllylPro]D[tBuAla][B5(5)]DTAA[Phe(3-CF3)]T[PyrS2″]F[Bta]S-NH2 (staple 1-4, 4-11) [I-1268: Ac-PL3-Asp-Npg-B5-Asp-Thr-Ala-Ala-3F3MeF-Thr-PyrS2-Phe-BztA-Ser-NH2], which IC50 [1] is on record?
**A.** 198 nM

B3: I-2519 (peptide)
peptide: Ac-[αAllylPro]D[tBuAla][B6]D[Phe(3-COOH)]QAFL[PyrS1][Phe(2-CF3)][Bta]A-NH2
modifications: staple 1-4, 4-11; not fully specified; printed as Ac-PL3-Asp-Npg-B6-Asp-3COOHF-Gln-Ala-Phe-Leu-PyrS1-2F3MeF-BztA-Ala-NH2
**Q.** With B3 as the binder, how does the IC50 [1] read?
**A.** 94 nM

**Q.** What does the source list for Ac-[αAllylPro]D[Cha][B5(4)]DEAAFL[PyrS2″][Phe(2-Cl)][Bta]Q-NH2 (staple 1-4, 4-11; also: earlier-eluting HPLC peak staple isomer composition) [I-1077]?
**A.** IC50 [1]: 324 nM; EC50 [2]: 324 nM

**Q.** Ac-[αAllylPro]D[tBuAla][B6]D[Phe(3-COOH)]QAFL[PyrS2][Phe(2-CF3)][Bta]A-NH2 (staple 1-4, 4-11) [I-2515] was tested. Which IC50 [1] did it give?
**A.** 1610 nM

B4: I-2528 (peptide)
peptide: Ac-[αAllylPro]N[Cha][B5(25)]DQK(Me2Npr)AFL[PyrS2]F[Bta][MorphAsn]-NH2
modifications: staple 1-4, 4-11; reading uncertain; also: printed as Ac-PL3-Asn-Cha-B5-Asp-Gln-[Me2Npr]Lys-Ala-Phe-Leu-PyrS2-Phe-BztA-MorphAsn-NH2
**Q.** Which IC50 [1] does the source give for B4 here?
**A.** 610 nM

B5: I-2523 (peptide)
peptide: Ac-[αAllylPro]N[Cha][B5(4)]DQKAFL[PyrS2]F[Bta][MorphAsn]-NH2
modifications: staple 1-4, 4-11; not fully specified (residue 7); printed as Ac-PL3-Asn-Cha-B5-Asp-Gln-[Phc]Lys-Ala-Phe-Leu-PyrS2-Phe-BztA-MorphAsn-NH2
**Q.** B5 was tested. Which IC50 [1] did it give?
**A.** 1730 nM

**Q.** What does the source list for Ac-[αAllylPro]D[tBuAla][B5(3)]DEAAFL[PyrS2″][Phe(2-Cl)][Bta]T-NH2 (staple 1-4, 4-11; also: staple stereoisomer: later eluting HPLC peak) [I-1071]?
**A.** IC50 [1]: 1260 nM; EC50 [2]: 1260 nM

**Q.** With Ac-PD[tBuAla][R4]DDAAFL[PyrS2][3Thi][Bta]Q-NH2 (staple 4-11) [I-1989] as the binder, how does the IC50 [3] read?
**A.** 186 nM

**Q.** Ac-[αAllylPro]D[Cha][B5(4)]DEAAFL[PyrS2″][Phe(2-Cl)][Bta]Q-NH2 (staple 1-4, 4-11; also: later-eluting HPLC peak staple isomer composition) [I-1078] was tested. Which IC50 [1] did it give?
**A.** 352 nM

**Q.** What about the EC50 [2] of the same binder?
**A.** 352 nM

**Q.** With Ac-[αAllylPro]N[Cha][B5(4)]DQK(Ac)AFL[PyrS2]F[Bta][MorphAsn]-NH2 (staple 1-4, 4-11) [I-2522] as the binder, how does the IC50 [1] read?
**A.** 219 nM

**Q.** For Ac-PD[tBuAla][R6]DDAAFL[PyrS2][3Thi][Bta]Q-NH2 (staple 4-11) [I-1988], which IC50 [3] is on record?
**A.** 312 nM

**Q.** Which results are given for Ac-[αAllylPro]D[tBuAla][B5(3)]DEAAFL[PyrS2″]F[Bta]Q-NH2 (staple 1-4, 4-11; also: staple stereoisomer: later eluting HPLC peak) [I-1074]?
**A.** IC50 [1]: 498 nM; EC50 [2]: 498 nM

**Q.** How did the IC50 [1] turn out when Ac-[αAllylPro]D[tBuAla][B5(4)]DDAAFN[PyrS2″][Phe(2-Cl)][Bta][Leu(ol)] (staple 1-4, 4-11) [I-1080] was run?
**A.** 6 nM

**Q.** And the EC50 [2]?
**A.** 6 nM

**Q.** How did the IC50 [1] turn out when Ac-[αAllylPro]D[tBuAla][B6]D[Phe(3-COOH)]QAFL[PyrS2][Phe(2-CF3)][Bta]A-NH2 (staple 1-4, 4-11; also: one of three HPLC isomer compositions) [I-2516] was run?
**A.** 209 nM

**Q.** With Ac-[αAllylPro]N[Cha][B5(4)]DQK(Morpholinoacetyl)AFL[PyrS2]F[Bta][MorphAsn]-NH2 (staple 1-4, 4-11) [I-2527] as the binder, how does the IC50 [1] read?
**A.** 263 nM

**Q.** Ac-[αAllylPro]D[tBuAla][B6]D[Phe(3-COOH)]QAFL[PyrS2][Phe(2-CF3)][Bta]A-NH2 (staple 1-4, 4-11) [I-2517] was tested. Which IC50 [1] did it give?
**A.** 61 nM

B6: I-1991 (peptide)
peptide: Ac-PD[tBuAla][R6]DDAAFL[PyrS2][3Thi][Bta]Q-NH2
modifications: staple 4-11; not fully specified; printed as Ac-Pro-Asp-Npg-R6-Asp-Asp-Ala-Ala-Phe-Leu-PyrS2-3Thi-BztA-Gln-NH2; also: staple -CH=CH- reduced to -CH2-CH2-
**Q.** How did the IC50 [3] turn out when B6 was run?
**A.** 397 nM

B7: I-1992 (peptide)
peptide: Ac-PD[tBuAla][R4]DDAAFL[PyrS2][3Thi][Bta]Q-NH2
modifications: staple 4-11; not fully specified; printed as Ac-Pro-Asp-Npg-R4-Asp-Asp-Ala-Ala-Phe-Leu-PyrS2-3Thi-BztA-Gln-NH2; also: staple -CH=CH- reduced to -CH2-CH2-
**Q.** For B7, which IC50 [3] is on record?
**A.** 536 nM

**Q.** With Ac-[αAllylPro]N[Cha][B5(25)]DQK(Ms)AFL[PyrS2]F[Bta][MorphAsn]-NH2 (staple 1-4, 4-11) [I-2524] as the binder, how does the IC50 [1] read?
**A.** 609 nM

**Q.** Which results are given for Ac-[αAllylPro]D[tBuAla][B5(3)]DDAAFN[PyrS2″][Phe(2-Cl)][Bta]-Alaol (staple 1-4, 4-11) [I-1081]?
**A.** IC50 [1]: 5 nM; EC50 [2]: 5 nM

**Q.** Which IC50 [1] does the source give for Ac-[αAllylPro]N[Cha][B5(25)]DQK(CF3CO)AFL[PyrS2]F[Bta][MorphAsn]-NH2 (staple 1-4, 4-11) [I-2525] here?
**A.** 4290 nM
